Numbering of substitutions follows the chain as printed. One block for each molecule: values may come before it.
Experiments:
human CD20 (human) = human CD20 (human) (UniProt P11836); assay: fixed Ramos cell ELISA, IgG, on-rate format: 5 min IgG step and 5 min second antibody step, goat anti-human IgG-HRP, OD 450
human CD20 [1] = target: T1, human CD20 (human, UniProt P11836 1-297); assay: fixed Ramos cell ELISA, Fab 1 h, anti-His6 peroxidase, OD 450 (overall binding)
T1 sequence (looked up): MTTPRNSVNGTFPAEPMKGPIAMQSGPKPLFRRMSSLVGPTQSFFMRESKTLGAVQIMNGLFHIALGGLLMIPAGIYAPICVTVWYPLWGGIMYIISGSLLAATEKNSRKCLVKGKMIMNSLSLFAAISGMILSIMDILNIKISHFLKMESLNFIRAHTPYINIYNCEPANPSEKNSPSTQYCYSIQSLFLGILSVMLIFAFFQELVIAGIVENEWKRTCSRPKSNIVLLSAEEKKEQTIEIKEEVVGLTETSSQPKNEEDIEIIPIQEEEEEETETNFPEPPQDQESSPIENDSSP
Experimental: (§1) Ramos cells (ATCC) were grown in RPMI 1640 containing 10% heat inactivated Fetal Bovine Serum. Fifty microliters of Ramos cells (2-4×10⁶/ml), were pipetted into each well of a 96 well Poly-D-Lysine coated plate (BIOCAT Becton Dickinson Labware) and incubated at 37620 C., 5% CO₂ for 18 hours. Media was gently aspirated and […] of aqueous buffered zinc formalin (Anatech, Ltd.) was added to each well for 15 minutes at room temperature. Z-fix was removed and the plate was washed with phosphate-buffered saline (PBS) containing 0.05% Tween 20. The plate was blocked for 1 hour with 1% bovine serum albumin (BSA) in PBS. Dilutions of Fab or IgG were incubated with the fixed and blocked Ramos cells for 1 hour at room temperature. The plate was washed 3× with PBS 0.05% Tween […] of anti-His6 Peroxidase Mouse Monoclonal Antibody (Roche Diagnostics Corporation) at a 1:500 dilution were added to the wells and incubated 1 hour at room temperature. The plate was washed as above and developed with tetramethyl benzidine, and the reaction was stopped with 5N H₂SO₄. The plate absorbance was read at OD 450 nm. Dilutions of Fab and conjugate were in 1% BSA/PBS.

human CD20 [2] = target: T1, human CD20; assay: fixed Ramos cell ELISA, off-rate format: overnight incubation in PBS/BSA after the Fab step, anti-His6 peroxidase, OD 450
Experimental: as §1
(§2) IgG assays were performed similarly except IgG bound was detected with goat anti-human IgG-HRP. To compare antibody off-rate, after incubation with Fab or IgG the plates were incubated over night in PBS/BSA, before proceeding with the second antibody step. To compare antibody on-rate, incubation steps for Fab/IgG binding and with the second antibody were both of 5 minutes duration.

human CD20 [3] = target: T1, human CD20; assay: fixed Ramos cell ELISA, OD 450 nm
human CD20 [4] = target: T1, human CD20; assay: IgG binding to SKW 6.4 cells, KinExA equilibrium software
Experimental: (§3) SKW 6.4 cells were grown in DMEM media supplemented with 10% FCS and harvested at 5-10×10⁵ cells per ml. […] For human peripheral blood B cells, fresh CD19 positively sorted B cells were obtained from Allcells. These cells were washed two times in PBS with 1% BSA and resuspended at a concentration of 8×10⁷/ml.
(§4) Twelve, 3 fold serial dilutions were then made and 100ul of each dilution placed in a 96 well plate. To each dilution […] of antibody at 100 ng/ml was added and the plate incubated at 37620 C., 5% CO₂ for 4 hours. Each sample was then filtered with a 96 well 1 micron filter (Millipore) to remove the cells and bound antibody. Free antibody in solution was then quantified using an ELISA. Briefly, free IgG was captured in a 96 well plate coated with 1 mg/ml of anti-human kappa antibody (Southern Biotechnology) and detected using an anti-human Fc antibody coupled with HRP (Southern Biotechnology). The plate was developed using Fast TMB substrate (Pierce) and read at 450 nm.
(§5) The Kd of the antibody was then determined using the KinExA equilibrium software for an unknown antigen concentration. The OD450 value for each serial dilution was fitted with an estimated antigen concentration and the actual antibody concentration. The Kd and actual antigen concentration were then calculated.

human CD20 [5] = target: T1, human CD20; assay: IgG binding to SKW 6.4 cells over time, free antibody by ELISA, direct kinetics KinExA software
Experimental: SKW 6.4 cells were grown in DMEM media supplemented with 10% FCS and harvested at 5-10×10⁵ cells per ml. […] An equal volume of antibody at 100 ng/ml in PBS with 1% BSA at 37620 C. was then added to the cells and the timing for the experiment started. At time intervals from 60 seconds to 10800 seconds a sample of the antibody cell solution was sampled and filtered to remove cells and bound antibody. Free antibody remaining at each time point was then quantified using the ELISA described above.
The kinetics for the antibody cell reaction was calculated using the direct kinetics KinExA software. The OD450 value for each time point was fitted using the previously calculated Kd and antigen concentration and the Kon and Koff for the reaction calculated.

human CD20 [6] = target: T1, human CD20; assay: IgG binding to SKW 6.4 B lymphoma cells, free antibody by ELISA, KinExA equilibrium software
Experimental: as §3, §4, §5

human CD20 [7] = target: T1, human CD20; assay: IgG binding to primary human peripheral blood B cells (CD19 sorted), KinExA equilibrium software
Experimental: as §3, §4, §5

human CD20 [8] = target: T1, human CD20; assay: cell-based or functional assay
human CD20 [9] = target: T1, human CD20; assay: fixed Ramos cell ELISA, IgG, on-rate format: 5 min IgG step and 5 min second antibody step, goat anti-human IgG-HRP, OD 450
Experimental: as §1, §2

human CD20 [10] = target: T1, human CD20; assay: fixed Ramos cell ELISA, on-rate format: 5 min Fab step and 5 min second antibody step, anti-His6 peroxidase, OD 450
Experimental: as §1
IgG assays were performed similarly except IgG bound was detected with goat anti-human IgG-HRP. […]

- EC50 (read off the curve) (human CD20 (human)): 1 µg/mL
Molecule: commercial RITUXAN (Oncology Supply Co.) (antibody)

- EC50 (read off the curve) (human CD20 [1]): 0.06 µg/mL
Molecule: C2B8 Fab

- EC50 (read off the curve) (human CD20 [2]): ~0.1 µg/mL
- EC50 (read off the curve) (human CD20 [1]): ~0.06 µg/mL
B1: AME 4H5 Fab (Fab, V domains shown)
VH: QVQLVQSGAEVKKPGASVKVSCKASGYTFTSYNMHWVRQAPGQGLEWMGAIYPGNGDTSYNQKFKWRVTMTRDTSTSTVYMELSSLRSEDTAVYYCARSTYYGGDWQFDQWGKGTTVTVSS
VL: DIQMTQSPSSLSASVGDRVTITCRASSSVHYIHWYQQKPGKVPKLLIYATSNLASGVPSRFSGSGSGTDFTLTISSLQPEDVATYYCQQWTFNPPTFGGGTKVEIK
notes: Fab, His-tagged (anti-His6 detection); constant regions and tag not given

- maximum OD relative to the C2B8 antibody (human CD20 [3]): ~1.5 times
B2: AME 4H5 IgG (antibody, V domains shown)
VH: B1 VH
VL: B1 VL
notes: Full IgG

- fold enhancement of Kd compared to the C2B8 antibody (human CD20 [4]): 10 fold
- koff (human CD20 [5]): 7.9e-05 s⁻¹
- kon (human CD20 [5]): 580000 M⁻¹ s⁻¹
- Kd (human CD20 [6]): 0.145 nM
B3: AME 5 IgG (antibody, V domains shown)
VH: B1 VH with Q110E
VL: B1 VL with N52G, Q89T
notes: Full IgG

- Kd (human CD20 [7]): 0.113 nM
- maximum OD relative to the C2B8 antibody (human CD20 [3]): ~1.5 times
- fold enhancement of Kd compared to the C2B8 antibody (human CD20 [4]): 10 fold
- koff (human CD20 [5]): 7.7e-05 s⁻¹
- kon (human CD20 [5]): 780000 M⁻¹ s⁻¹
- Kd (human CD20 [6]): 0.097 nM
- ADCC, Estimated EC50s, ug/ml (Wil-2 cells as target) (human CD20 [8]): 0.0063 µg/mL
B4: AME 33 IgG (antibody, V domains shown)
VH: EVQLVQSGAEVKKPGESLKISCKGSGRTFTSYNMHWVRQMPGKGLEWMGAIYPLTGDTSYNQKSKLQVTISADKSISTAYLQWSSLKASDTAMYYCARSTYVGGDWQFDVWGKGTTVTVSS
VL: EIVLTQSPGTLSLSPGERATLSCRASSSVPYIHWYQQKPGQAPRLLIYATSALASGIPDRFSGSGSGTDFTLTISRLEPEDFAVYYCQQWLSNPPTFGQGTKLEIKR
notes: Full IgG; also called AME 33 antibody

- EC50 (read off the curve) (human CD20 [2]): ~0.2 µg/mL
- EC50 (read off the curve) (human CD20 [1]): ~0.06 µg/mL
B5: AME 1D10 Fab (Fab, V domains shown)
VH: B4 VH with R27Y, T55N, S64F, Q107T
VL: EIVLTQSPGTLSLSPGERATLSCRASSSVPYIHWYQQKPGQAPRLLIYATSNLASGIPDRFSGSGSGTDFTLTISRLEPEDFAVYYCQQWLSNPPTFGQGTKLEIK
notes: as for B1

- maximum OD relative to the C2B8 antibody (human CD20 [3]): ~1.5 times
- EC50 (read off the curve) (human CD20 [9]): ~0.4 µg/mL
B6: AME 1D10 IgG (antibody, V domains shown)
VH: B4 VH with R27Y, T55N, S64F, Q107T
VL: B5 VL
notes: Full IgG

- EC50 (read off the curve) (human CD20 [10]): ~0.3 µg/mL
- EC50 (read off the curve) (human CD20 [1]): ~0.06 µg/mL
B7: AME 18 Fab (Fab, V domains shown)
VH: B4 VH with S64F, T100Y, Q107T
VL: B5 VL with N52A
notes: as for B1

- EC50 (read off the curve) (human CD20 [2]): ~0.2 µg/mL
- EC50 (read off the curve) (human CD20 [1]): ~0.05 µg/mL
B8: AME 15 Fab (Fab, V domains shown)
VH: B4 VH with R27Y, T55N, Q62R, Q107T
VL: B5 VL
notes: as for B1

- binding result (human CD20 [1]): no binding (tested: about 7 µg/ml)
B9: 21E1 Hum (Fab, V domains shown)
VH: B4 VH with R27Y, L54G, T55N, S64F, L66G, V102Y, Q107S
VL: B5 VL with P30S
notes: the panels are titled Fab; also called AME 21E1 Hum; AME 21E1 Hum Fab

- EC50 (read off the curve) (human CD20 [9]): ~0.5 µg/mL
B10: AME 2C2 IgG (antibody, V domains shown)
VH: B4 VH with R27Y, T55N, S64F, Q107T
VL: B5 VL with P30S
notes: constant regions not spelled out

- maximum OD relative to the C2B8 antibody (human CD20 [3]): ~1.5 times
- EC50 (read off the curve) (human CD20 [9]): ~0.3 µg/mL
B11: AME 15 IgG (antibody, V domains shown)
VH: B4 VH with R27Y, T55N, Q62R, Q107T
VL: B5 VL
notes: Full IgG

- EC50 (read off the curve) (human CD20 [10]): ~0.5 µg/mL
- EC50 (read off the curve) (human CD20 [1]): ~0.08 µg/mL
B12: AME 33 Fab (Fab, V domains shown)
VH: B4 VH
VL: B5 VL with N52A
notes: Fab

- maximum OD relative to the C2B8 antibody (human CD20 [3]): ~1.5 times
B13: AME 18 IgG (antibody, V domains shown)
VH: B4 VH with S64F, T100Y, Q107T
VL: B5 VL with N52A
notes: Full IgG
